# Laboratory results reported in patent US20230250154A1 (CYTONICS, published 2023).
# T1: ADAMTS5 (human, UniProt Q9UNA0 262-622, limits assumed)
# T1 sequence (looked up): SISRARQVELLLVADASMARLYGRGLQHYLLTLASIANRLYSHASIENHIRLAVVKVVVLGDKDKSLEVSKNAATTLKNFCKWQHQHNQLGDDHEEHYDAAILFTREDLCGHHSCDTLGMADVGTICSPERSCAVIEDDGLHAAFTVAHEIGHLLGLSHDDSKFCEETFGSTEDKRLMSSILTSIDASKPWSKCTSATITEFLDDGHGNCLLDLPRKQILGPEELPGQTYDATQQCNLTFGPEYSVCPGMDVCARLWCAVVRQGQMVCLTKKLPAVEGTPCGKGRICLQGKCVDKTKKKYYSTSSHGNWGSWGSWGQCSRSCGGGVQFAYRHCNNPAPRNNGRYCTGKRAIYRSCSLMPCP
# T2: MMP1 (human, UniProt P03956 100-469, limits assumed)
# T2 sequence (looked up): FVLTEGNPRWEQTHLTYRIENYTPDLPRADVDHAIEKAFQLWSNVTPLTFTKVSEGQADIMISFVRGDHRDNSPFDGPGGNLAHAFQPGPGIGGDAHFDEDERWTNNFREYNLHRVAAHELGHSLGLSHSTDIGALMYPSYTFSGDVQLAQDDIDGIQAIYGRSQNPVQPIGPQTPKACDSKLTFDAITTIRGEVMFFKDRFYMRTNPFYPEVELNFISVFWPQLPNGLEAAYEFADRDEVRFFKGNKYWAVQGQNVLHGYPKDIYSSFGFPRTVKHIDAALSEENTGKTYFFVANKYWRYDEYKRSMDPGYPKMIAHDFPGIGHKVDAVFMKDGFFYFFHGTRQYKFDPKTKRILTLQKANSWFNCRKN
# T3: MMP2 (human, UniProt P08253 110-660, limits assumed)
# T3 sequence (looked up): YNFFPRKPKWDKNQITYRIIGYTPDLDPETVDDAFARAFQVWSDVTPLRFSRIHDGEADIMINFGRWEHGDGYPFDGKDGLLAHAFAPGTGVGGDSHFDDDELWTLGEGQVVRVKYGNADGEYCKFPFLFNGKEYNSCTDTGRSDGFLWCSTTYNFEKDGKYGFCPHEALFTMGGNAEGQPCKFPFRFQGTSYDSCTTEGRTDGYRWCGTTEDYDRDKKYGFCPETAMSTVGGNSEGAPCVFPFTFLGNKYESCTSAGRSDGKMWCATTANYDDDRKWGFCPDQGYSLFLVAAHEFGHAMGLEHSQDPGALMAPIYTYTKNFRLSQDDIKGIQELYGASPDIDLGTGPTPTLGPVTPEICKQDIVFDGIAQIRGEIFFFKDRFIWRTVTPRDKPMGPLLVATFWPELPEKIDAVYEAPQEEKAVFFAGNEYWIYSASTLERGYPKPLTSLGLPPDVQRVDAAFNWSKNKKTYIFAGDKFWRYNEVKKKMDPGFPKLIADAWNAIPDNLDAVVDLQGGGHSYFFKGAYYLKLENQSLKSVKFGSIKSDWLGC
# T4: ADAMTS4 (human, UniProt O75173 213-685, limits assumed)
# T4 sequence (looked up): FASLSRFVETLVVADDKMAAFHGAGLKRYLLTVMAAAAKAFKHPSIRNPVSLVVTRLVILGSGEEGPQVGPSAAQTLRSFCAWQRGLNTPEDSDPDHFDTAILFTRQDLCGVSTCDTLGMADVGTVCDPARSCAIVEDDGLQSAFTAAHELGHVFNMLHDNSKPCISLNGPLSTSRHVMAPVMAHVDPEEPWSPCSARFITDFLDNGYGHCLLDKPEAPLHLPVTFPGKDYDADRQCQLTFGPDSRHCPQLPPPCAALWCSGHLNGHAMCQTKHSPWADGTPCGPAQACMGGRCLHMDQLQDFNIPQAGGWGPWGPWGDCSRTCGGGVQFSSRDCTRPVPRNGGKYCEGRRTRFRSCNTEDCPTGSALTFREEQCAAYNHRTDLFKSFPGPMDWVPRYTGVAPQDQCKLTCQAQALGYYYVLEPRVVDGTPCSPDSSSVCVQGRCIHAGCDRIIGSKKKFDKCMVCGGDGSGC
# B1: Variant A2M, bait region SEQ ID NO 84 (other)
# chain: SVSGKPQYMVLVPSLLHTETTEKGCVLLSYLNETVTVSASLESVRGNRSLFTDLEAENDVLHCVAFAVPKSSSNEEVMFLTVQVKGPTQEFKKRTTVMVKNEDSLVFVQTDKSIYKPGQTVKFRVVSMDENFHPLNELIPLVYIQDPKGNRIAQWQSFQLEGGLKQFSFPLSSEPFQGSYKVVVQKKSGGRTEHPFTVEEFVLPKFEVQVTVPKIITILEEEMNVSVCGLYTYGKPVPGHVTVSICRKYSDASDCHGEDSQAFCEKFSGQLNSHGCFYQQVKTKVFQLKRKEYEMKLHTEAQIQEEGTVVELTGRQSSEITRTITKLSFVKVDSHFRQGIPFFGQVRLVDGKGVPIPNKVIFIRGNEANYYSNATTDEHGLVQFSINTTNVMGTSLTVRVNYKDRSPCYGYQWVSEEHEEAHHTAYLVFSPSKSFVHLEPMSHELPCGHTQTVQAHYILNGGTLLGLKKLSFYYLIMAKGGIVRTGTHGLLVKQEDMKGHFSISIPVKSDIAPVARLLIYAVLPTGDVIGDSAKYDVENCLANKVDLSFSPSQSLPASHAHLRVTAAPQSVCALRAVDQSVLLMKPDAELSASSVYNLLPEKDLTGFPGPLNDQDDEDCINRHNVYINGITYTPVSSTNEKDMYSFLEDMGLKAFTNSKIRKPKMCPQLEQYEMHGPEGLRVGKEEEGLGSIPENFFGVSELEGRGSKLRKYFPETWIWDLVVVNSAGVAEVGVTVPDTITEWKAGAFCLSEDAGLGISSTASLRAFQPFFVELTMPYSVIRGEAFTLKATVLNYLPKCIRVSVQLEASPAFLAVPVEKEQAPHCICANGRQTVSWAVTPKSLGNVNFTVSAEALESQELCGTEVPSVPEHGRKDTVIKPLLVEPEGLEKETTFNSLLCPSGGEVSEELSLKLPPNVVEESARASVSVLGDILGSAMQNTQNLLQMPYGCGEQNMVLFAPNIYVLDYLNETQQLTPEIKSKAIGYLNTGYQRQLNYKHYDGSYSTFGERYGRNQGNTWLTAFVLKTFAQARAYIFIDEAHITQALIWLSQRQKDNGCFRSSGSLLNNAIKGGVEDEVTLSAYITIALLEIPLTVTHPVVRNALFCLESAWKTAQEGDHGSHVYTKALLAYAFALAGNQDKRKEVLKSLNEEAVKKDNSVHWERPQKPKAPVGHFYEPQAPSAEVEMTSYVLLAYLTAQPAPTSEDLTSATNIVKWITKQQNAQGGFSSTQDTVVALHALSKYGAATFTRTGKAAQVTIQSSGTFSSKFQVDNNNRLLLQQVSLPELPGEYSMKVTGEGCVYLQTSLKYNILPEKEEFPFALGVQTLPQTCDEPKAHTSFQISLSVSYTGSRSASNMAIVDVKMVSGFIPLKPTVKMLERSNHVSRTEVSSNHVLIYLDKVSNQTLSLFFTVLQDVPVRDLKPAIVKVYDYYETDEFAIAEYNAPCSKDLGNADYKDDDDKGASHHHHHH
# B2: Variant A2M, bait region SEQ ID NO 90 (other)
# chain: SVSGKPQYMVLVPSLLHTETTEKGCVLLSYLNETVTVSASLESVRGNRSLFTDLEAENDVLHCVAFAVPKSSSNEEVMFLTVQVKGPTQEFKKRTTVMVKNEDSLVFVQTDKSIYKPGQTVKFRVVSMDENFHPLNELIPLVYIQDPKGNRIAQWQSFQLEGGLKQFSFPLSSEPFQGSYKVVVQKKSGGRTEHPFTVEEFVLPKFEVQVTVPKIITILEEEMNVSVCGLYTYGKPVPGHVTVSICRKYSDASDCHGEDSQAFCEKFSGQLNSHGCFYQQVKTKVFQLKRKEYEMKLHTEAQIQEEGTVVELTGRQSSEITRTITKLSFVKVDSHFRQGIPFFGQVRLVDGKGVPIPNKVIFIRGNEANYYSNATTDEHGLVQFSINTTNVMGTSLTVRVNYKDRSPCYGYQWVSEEHEEAHHTAYLVFSPSKSFVHLEPMSHELPCGHTQTVQAHYILNGGTLLGLKKLSFYYLIMAKGGIVRTGTHGLLVKQEDMKGHFSISIPVKSDIAPVARLLIYAVLPTGDVIGDSAKYDVENCLANKVDLSFSPSQSLPASHAHLRVTAAPQSVCALRAVDQSVLLMKPDAELSASSVYNLLPEKDLTGFPGPLNDQDDEDCINRHNVYINGITYTPVSSTNEKDMYSFLEDMGLKAFTNSKIRKPKMCPQLEQYEMHGPEGLRVGSELEGRGSFYESDVMGRGHARLVHVEEPHTKLLRKYFPETWIWDLVVVNSAGVAEVGVTVPDTITEWKAGAFCLSEDAGLGISSTASLRAFQPFFVELTMPYSVIRGEAFTLKATVLNYLPKCIRVSVQLEASPAFLAVPVEKEQAPHCICANGRQTVSWAVTPKSLGNVNFTVSAEALESQELCGTEVPSVPEHGRKDTVIKPLLVEPEGLEKETTFNSLLCPSGGEVSEELSLKLPPNVVEESARASVSVLGDILGSAMQNTQNLLQMPYGCGEQNMVLFAPNIYVLDYLNETQQLTPEIKSKAIGYLNTGYQRQLNYKHYDGSYSTFGERYGRNQGNTWLTAFVLKTFAQARAYIFIDEAHITQALIWLSQRQKDNGCFRSSGSLLNNAIKGGVEDEVTLSAYITIALLEIPLTVTHPVVRNALFCLESAWKTAQEGDHGSHVYTKALLAYAFALAGNQDKRKEVLKSLNEEAVKKDNSVHWERPQKPKAPVGHFYEPQAPSAEVEMTSYVLLAYLTAQPAPTSEDLTSATNIVKWITKQQNAQGGFSSTQDTVVALHALSKYGAATFTRTGKAAQVTIQSSGTFSSKFQVDNNNRLLLQQVSLPELPGEYSMKVTGEGCVYLQTSLKYNILPEKEEFPFALGVQTLPQTCDEPKAHTSFQISLSVSYTGSRSASNMAIVDVKMVSGFIPLKPTVKMLERSNHVSRTEVSSNHVLIYLDKVSNQTLSLFFTVLQDVPVRDLKPAIVKVYDYYETDEFAIAEYNAPCSKDLGNADYKDDDDKGASHHHHHH
# Experiments:
# Experiment in all cases: cell-based or functional assay
# ADAMTS5 = target: T1, ADAMTS5
# MMP12 = MMP12 (human, UniProt P39900 106-470, limits assumed)
# MMP1 = target: T2, MMP1
# MMP8 = MMP8 (human, UniProt P22894 101-467, limits assumed)
# MMP3 = MMP3 (human, UniProt P08254 100-477, limits assumed)
# MMP2 = target: T3, MMP2
# ADAMTS4 = target: T4, ADAMTS4
# MMP9 = MMP9 (human, UniProt P14780 107-707, limits assumed)
# MMP13 = MMP13 (human, UniProt P45452 104-471, limits assumed)
# bovine trypsin = bovine trypsin (bovine, UniProt P00760 24-246)
# Elastase = target: Elastase
# chymotrypsin = target: chymotrypsin
# bovine trypsin, sequence (P00760 24-246): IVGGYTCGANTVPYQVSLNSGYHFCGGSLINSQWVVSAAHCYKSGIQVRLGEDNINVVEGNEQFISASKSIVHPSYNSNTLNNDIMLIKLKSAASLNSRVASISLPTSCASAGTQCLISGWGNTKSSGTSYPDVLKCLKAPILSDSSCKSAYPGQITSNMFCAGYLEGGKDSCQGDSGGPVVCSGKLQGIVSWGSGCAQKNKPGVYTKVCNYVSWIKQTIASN
# MMP3, sequence (P08254 100-477 limits assumed): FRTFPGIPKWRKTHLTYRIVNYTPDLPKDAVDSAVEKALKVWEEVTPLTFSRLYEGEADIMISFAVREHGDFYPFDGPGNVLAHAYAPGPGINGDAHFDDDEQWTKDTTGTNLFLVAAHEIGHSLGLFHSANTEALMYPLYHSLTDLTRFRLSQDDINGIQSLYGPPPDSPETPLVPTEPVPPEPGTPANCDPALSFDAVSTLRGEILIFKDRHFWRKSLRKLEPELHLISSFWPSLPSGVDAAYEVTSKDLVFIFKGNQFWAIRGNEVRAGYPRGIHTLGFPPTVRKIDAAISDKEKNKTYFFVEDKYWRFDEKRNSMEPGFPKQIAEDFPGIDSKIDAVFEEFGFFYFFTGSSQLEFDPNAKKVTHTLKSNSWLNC
# MMP12, sequence (P39900 106-470 limits assumed): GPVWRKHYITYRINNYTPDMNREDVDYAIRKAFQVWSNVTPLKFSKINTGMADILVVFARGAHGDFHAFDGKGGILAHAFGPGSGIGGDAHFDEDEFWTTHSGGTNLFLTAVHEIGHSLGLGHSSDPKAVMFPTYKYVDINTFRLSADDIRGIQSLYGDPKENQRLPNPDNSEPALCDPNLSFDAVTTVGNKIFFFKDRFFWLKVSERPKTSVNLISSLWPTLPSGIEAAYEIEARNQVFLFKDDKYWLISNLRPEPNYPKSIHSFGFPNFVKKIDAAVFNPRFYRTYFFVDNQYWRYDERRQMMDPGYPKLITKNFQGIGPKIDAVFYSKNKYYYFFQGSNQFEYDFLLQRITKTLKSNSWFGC
# MMP8, sequence (P22894 101-467 limits assumed): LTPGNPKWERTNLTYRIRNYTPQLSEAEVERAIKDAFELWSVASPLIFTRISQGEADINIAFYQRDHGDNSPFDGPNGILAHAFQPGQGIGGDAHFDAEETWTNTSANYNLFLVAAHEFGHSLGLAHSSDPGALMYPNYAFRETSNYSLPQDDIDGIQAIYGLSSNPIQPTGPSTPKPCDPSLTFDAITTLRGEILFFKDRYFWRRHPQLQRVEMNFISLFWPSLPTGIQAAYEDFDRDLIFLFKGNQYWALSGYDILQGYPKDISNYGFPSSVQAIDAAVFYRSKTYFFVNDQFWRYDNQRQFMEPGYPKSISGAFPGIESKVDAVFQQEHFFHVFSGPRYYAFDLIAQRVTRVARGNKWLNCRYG
# MMP9, sequence (P14780 107-707 limits assumed): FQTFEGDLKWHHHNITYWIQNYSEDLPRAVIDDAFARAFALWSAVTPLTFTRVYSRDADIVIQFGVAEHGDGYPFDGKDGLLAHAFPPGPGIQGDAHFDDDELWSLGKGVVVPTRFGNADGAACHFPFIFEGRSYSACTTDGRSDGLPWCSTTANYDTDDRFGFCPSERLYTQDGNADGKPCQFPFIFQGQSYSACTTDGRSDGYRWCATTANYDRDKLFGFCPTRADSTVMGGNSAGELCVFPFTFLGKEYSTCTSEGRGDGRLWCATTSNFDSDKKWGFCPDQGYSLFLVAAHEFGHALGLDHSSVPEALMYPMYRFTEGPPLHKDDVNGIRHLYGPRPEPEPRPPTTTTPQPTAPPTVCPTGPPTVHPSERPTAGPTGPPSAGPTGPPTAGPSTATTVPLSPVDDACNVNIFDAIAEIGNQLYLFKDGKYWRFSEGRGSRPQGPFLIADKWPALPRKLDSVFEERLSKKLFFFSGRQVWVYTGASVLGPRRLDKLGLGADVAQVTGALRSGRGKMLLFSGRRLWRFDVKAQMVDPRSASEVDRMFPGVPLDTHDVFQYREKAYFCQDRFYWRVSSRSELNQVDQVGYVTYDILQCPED
Binder,Protease Inhibition (% of WT) (ADAMTS5),Protease Inhibition (% of WT) (MMP12),Protease Inhibition (% of WT) (MMP1),Protease Inhibition (% of WT) (MMP8),Protease Inhibition (% of WT) (MMP3),Protease Inhibition (% of WT) (MMP2),Protease Inhibition (% of WT) (ADAMTS4),Protease Inhibition (% of WT) (MMP9),Protease Inhibition (% of WT) (MMP13),Protease Inhibition (% of WT) (bovine trypsin),Protease Inhibition (% of WT) (Elastase),Protease Inhibition (% of WT) (chymotrypsin)
B1,250 % of WT,100 % of WT,180 % of WT,350 % of WT,170 % of WT,120 % of WT,70 % of WT,60 % of WT,720 % of WT,100 % of WT,75 % of WT,71 % of WT
B2,350 % of WT,100 % of WT,50 % of WT,110 % of WT,110 % of WT,110 % of WT,70 % of WT,100 % of WT,700 % of WT,100 % of WT,550 % of WT,80 % of WT
